Results on two molecules are retold here after article PMC12144180 (Nature Communications, 2025).

For this test, the target named is T1, RNA polymerase I subunit A135 (S. cerevisiae, UniProt P22138 1-1203).
T1 sequence: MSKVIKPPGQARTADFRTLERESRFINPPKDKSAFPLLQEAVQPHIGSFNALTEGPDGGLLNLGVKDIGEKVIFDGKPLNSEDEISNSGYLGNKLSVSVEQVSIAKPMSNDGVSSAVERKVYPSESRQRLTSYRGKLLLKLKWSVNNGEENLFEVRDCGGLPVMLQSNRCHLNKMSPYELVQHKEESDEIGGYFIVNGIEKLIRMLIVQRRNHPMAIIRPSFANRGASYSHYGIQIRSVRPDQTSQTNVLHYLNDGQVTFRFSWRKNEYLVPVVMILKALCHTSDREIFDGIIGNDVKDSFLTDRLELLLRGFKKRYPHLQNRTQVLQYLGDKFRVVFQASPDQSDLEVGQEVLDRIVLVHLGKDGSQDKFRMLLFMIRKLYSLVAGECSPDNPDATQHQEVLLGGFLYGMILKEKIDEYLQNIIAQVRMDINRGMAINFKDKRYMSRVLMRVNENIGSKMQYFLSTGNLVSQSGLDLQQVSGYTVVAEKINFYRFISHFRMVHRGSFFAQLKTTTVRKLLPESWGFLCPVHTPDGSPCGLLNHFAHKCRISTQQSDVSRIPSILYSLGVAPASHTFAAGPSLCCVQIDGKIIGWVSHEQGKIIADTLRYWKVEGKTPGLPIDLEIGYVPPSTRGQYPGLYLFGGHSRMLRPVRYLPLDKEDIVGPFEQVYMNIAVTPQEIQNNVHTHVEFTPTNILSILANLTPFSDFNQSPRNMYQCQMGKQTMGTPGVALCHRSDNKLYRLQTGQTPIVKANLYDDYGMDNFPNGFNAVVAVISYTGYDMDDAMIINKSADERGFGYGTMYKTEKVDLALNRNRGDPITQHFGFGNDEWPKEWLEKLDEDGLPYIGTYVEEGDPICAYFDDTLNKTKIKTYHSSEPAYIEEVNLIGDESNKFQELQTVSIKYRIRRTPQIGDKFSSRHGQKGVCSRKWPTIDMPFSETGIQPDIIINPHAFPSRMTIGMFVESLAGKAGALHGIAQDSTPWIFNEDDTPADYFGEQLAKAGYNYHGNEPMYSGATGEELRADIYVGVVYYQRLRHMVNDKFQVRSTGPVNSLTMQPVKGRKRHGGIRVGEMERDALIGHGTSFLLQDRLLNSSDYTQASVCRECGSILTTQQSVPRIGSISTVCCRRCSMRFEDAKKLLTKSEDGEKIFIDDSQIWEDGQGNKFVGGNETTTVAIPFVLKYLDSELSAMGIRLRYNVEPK
Description: cryo-EM structure.

B1: RNA polymerase I subunit A12 (natural protein)
chain: MSVVGSLIFCLDCGDLLENPNAVLGSNVECSQCKAIYPKSQFSNLKVVTTTADDAFPSSLRAKKSVVKTSLKKNELKDGATIKEKCPQCGNEEMNYHTLQLRSADEGATVFYTCTSCGYKFRTNN
For the molecule B1, the binding result was “binds”.

B2: A49/A34.5 heterodimer of RNA polymerase I (complex)
chain 1: MSVKRSVSEIEIESVQDQPSVAVGSFFKGFRAPSDTTFDLYKKKKSEKDEFVLHGENERLEYEGYTDSSSQASNQYVVGLFNPEKKSIQLYKAPVLVSKVVSKSSKNLRGPKIKSKSDTRPSALRNALGEAFGTKKAKKAIADLERNRIDSDKLTDSAIDIVDSVRTASKDLPTRAQLDEITSNDRPTPLANIDATDVEQIYPIESIIPKKELQFIRVSSILKEADKEKKLELFPYQNNSKYVAKKLDSLTQPSQMTKLQLLYYLSLLLGVYENRRVNNKTKLLERLNSPPEILVDGILSRFTVIKPGQFGRSKDRSYFIDPQNEDKILCYILAIIMHLDNFIVEITPLAHELNLKPSKVVSLFRVLGAIVKGATVAQAEAFGIPKSTAASYKIATMKVPFKLPEMTRRGRGPRR
chain 2: MSKLSKDYVSDSDSDDEVISNEFSIPDGFKKCKHLKNFPLNGDNKKKAKQQQVWLIKFPSNVDISKLKSLPVDFESSTTMTIDKHDYKIMDDTDIESSLTQDNLSNMTLLVPSESKESLKIASTAKDNAPLQFDKVFSVSETAKIPAIDYSKVRVPRKDVPKVEGLKLEHFATGYDAEDFHVAEEVKENKKEPKKRSHHDDEEESSEKKKKKKEKREKREKKDKKDKKKKHRD
As for B2, the binding result is “binds”.
